We go through two molecules from patent WO2004074491A2 (dated 2004).

The experiment deals with T1, K88 pilus protein antigen (also known as the F4 fimbriae adhesin) (Escherichia coli (enterotoxigenic)).
T1 construct: Used as ELISA coat and as the ligand amine-coupled to the CM5 SPR chip; also called K88 antigen; K88 pili
As to the kind of experiment: SPR (Biacore), K88 pili coupled to a CM5 chip, purified antibody as analyte. In general terms: Surface plasmon resonance follows binding to a sensor surface in real time, without labels.

T1 sequence (P14190 22-283): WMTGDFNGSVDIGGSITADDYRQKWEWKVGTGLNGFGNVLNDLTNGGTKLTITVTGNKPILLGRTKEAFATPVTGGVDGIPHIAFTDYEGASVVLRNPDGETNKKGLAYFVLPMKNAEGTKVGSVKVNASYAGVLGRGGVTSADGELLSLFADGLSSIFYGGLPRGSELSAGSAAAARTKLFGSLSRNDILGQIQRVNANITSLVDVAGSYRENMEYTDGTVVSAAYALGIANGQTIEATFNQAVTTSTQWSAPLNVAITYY

B1: anti-K88 monoclonal IgG1 antibody 36/41 purified from hybridoma cells (antibody)
chain 1: EVQLQQSGPELVKTGASVKISCKASDYSLTDYYMHWVKQSHGESLEWIGYINFYNGATNYNQKFKGKATFTVDTSSSTVYMQFNSLTSEDSAVYYCVREALLRNYAMDYWGQGTSVTVSSAKTTPPSVYPLAPGSAAQTNSMVTLGCLVKGYFPEPVTVTWNSGSLSSGVHTFPAVLQSDLYTLSSSVTVPSSTWPSETVTCNVAHPASSTKVDKKIVPRDCGCKPCICTVPEVSSVFIFPPKPKDVLTITLTPKVTCVVVDISKDDPEVQFSWFVDDVEVHTAQTQPREEQFNSTFRSVSELPIMHQDWLNGKEFKCRVNSAAFPAPIEKTISKTKGRPKAPQVYTIPPPKEQMAKDKVSLTCMITDFFPEDITVEWQWNGQPAENYKNTQPIMDTDGSYFVYSKLNVQKSNWEAGNTFTCSVLHEGLHNHHTEKSLSHSPGK
chain 2: ENVLTQSPAIMSASPGEKVTMTCRASSSVSSRYLHWYQQKSGASPKLWIYSTSNLASGVPARFSGSGSGTSYSLTISSVEAEDAATYYCQQYSGYPWTFGGGTKLEIKRADAAPTVSIFPPSSEQLTSGGASVVCFLNNFYPKDINVKWKIDGSERQNGVLNSWTDQDSKDSTYSMSSTLTLTKDEYERHNSYTCEATHKTSTSPIVKSFNRNEC
For B1, the Kd stood at 0.03 nM.

B2: plant-produced anti-K88 antibody 36/41 with ER retention signal (corn, pTMR554) (antibody)
chain 1: EVQLQQSGPELVKTGASVKISCKASDYSLTDYYMHWVKQSHGESLEWIGYINFYNGATNYNQKFKGKATFTVDTSSSTVYMQFNSLTSEDSAVYYCVREALLRNYAMDYWGQGTSVTVSSAKTTPPSVYPLAPGSAAQTNSMVTLGCLVKGYFPEPVTVTWNSGSLSSGVHTFPAVLQSDLYTLSSSVTVPSSTWPSETVTCNVAHPASSTKVDKKIVPRDCGCKPCICTVPEVSSVFIFPPKPKDVLTITLTPKVTCVVVDISKDDPEVQFSWFVDDVEVHTAQTQPREEQFNSTFRSVSELPIMHQDWLNGKEFKCRVNSAAFPAPIEKTISKTKGRPKAPQVYTIPPPKEQMAKDKVSLTCMITDFFPEDITVEWQWNGQPAENYKNTQPIMDTDGSYFVYSKLNVQKSNWEAGNTFTCSVLHEGLHNHHTEKSLSHSPGKSEKDEL
chain 2: ENVLTQSPAIMSASPGEKVTMTCRASSSVSSRYLHWYQQKSGASPKLWIYSTSNLASGVPARFSGSGSGTSYSLTISSVEAEDAATYYCQQYSGYPWTFGGGTKLEIKRADAAPTVSIFPPSSEQLTSGGASVVCFLNNFYPKDINVKWKIDGSERQNGVLNSWTDQDSKDSTYSMSSTLTLTKDEYERHNSYTCEATHKTSTSPIVKSFNRNECSEKDEL
In turn, B2 registered a Kd of 0.03 nM.

For orientation: Kd means a measure of binding affinity in units of concentration. Read a high Kd as weaker binding.
